Data as given in patent publication US20220380471A1 (US Dept. of Health and Human Services, published 2022).

T1: recombinant human B7H3-Fc protein (human, UniProt Q5ZPR3 29-466, limits assumed)
T1 construct: 154 kDa non-reduced, 77 kDa reduced; also called hB7H3-Fc; not shown: Fc part
T1 sequence (looked up): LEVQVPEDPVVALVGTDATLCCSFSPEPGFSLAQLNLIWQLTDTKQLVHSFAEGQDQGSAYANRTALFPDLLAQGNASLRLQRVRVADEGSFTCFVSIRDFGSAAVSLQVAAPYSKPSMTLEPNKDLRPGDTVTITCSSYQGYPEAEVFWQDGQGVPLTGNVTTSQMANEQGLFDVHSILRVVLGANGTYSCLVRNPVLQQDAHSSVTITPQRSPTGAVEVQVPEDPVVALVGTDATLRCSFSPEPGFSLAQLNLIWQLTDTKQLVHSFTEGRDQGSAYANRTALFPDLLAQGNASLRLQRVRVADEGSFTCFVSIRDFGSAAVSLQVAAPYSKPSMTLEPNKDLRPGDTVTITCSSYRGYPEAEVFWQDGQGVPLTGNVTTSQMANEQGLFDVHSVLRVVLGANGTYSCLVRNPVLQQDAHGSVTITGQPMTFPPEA

T2: hB7H3-His (human, UniProt Q5ZPR3 29-461, limits assumed)
T2 construct: not shown: His tag
T2 sequence (looked up): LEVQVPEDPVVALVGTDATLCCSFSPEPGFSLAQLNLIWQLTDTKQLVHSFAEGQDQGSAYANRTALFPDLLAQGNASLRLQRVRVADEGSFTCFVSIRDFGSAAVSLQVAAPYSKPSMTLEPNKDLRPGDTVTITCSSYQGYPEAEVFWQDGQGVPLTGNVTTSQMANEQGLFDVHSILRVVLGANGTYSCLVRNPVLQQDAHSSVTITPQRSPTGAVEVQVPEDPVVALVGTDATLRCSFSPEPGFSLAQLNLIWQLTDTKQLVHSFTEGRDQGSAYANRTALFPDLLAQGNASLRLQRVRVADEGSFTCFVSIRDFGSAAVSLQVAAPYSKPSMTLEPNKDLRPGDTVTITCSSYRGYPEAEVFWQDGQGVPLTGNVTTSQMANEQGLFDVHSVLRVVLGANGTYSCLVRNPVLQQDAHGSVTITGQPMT

T3: human B7H3 (human, UniProt Q5ZPR3 29-466, limits assumed)
T3 construct: also called human B7H3 protein
T3 sequence (looked up): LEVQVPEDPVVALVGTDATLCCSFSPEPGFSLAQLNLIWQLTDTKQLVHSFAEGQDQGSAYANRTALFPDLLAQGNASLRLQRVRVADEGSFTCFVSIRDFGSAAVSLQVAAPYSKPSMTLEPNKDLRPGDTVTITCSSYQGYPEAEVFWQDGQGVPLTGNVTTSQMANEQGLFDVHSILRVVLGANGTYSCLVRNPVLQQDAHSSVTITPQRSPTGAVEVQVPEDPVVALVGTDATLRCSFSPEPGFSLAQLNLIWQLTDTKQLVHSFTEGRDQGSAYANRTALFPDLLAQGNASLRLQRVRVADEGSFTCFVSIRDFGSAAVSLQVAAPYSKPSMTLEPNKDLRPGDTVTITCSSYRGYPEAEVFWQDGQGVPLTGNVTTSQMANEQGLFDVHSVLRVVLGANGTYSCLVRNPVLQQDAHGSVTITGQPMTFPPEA

T4: monkey B7H3-His (monkey)
T4 chain: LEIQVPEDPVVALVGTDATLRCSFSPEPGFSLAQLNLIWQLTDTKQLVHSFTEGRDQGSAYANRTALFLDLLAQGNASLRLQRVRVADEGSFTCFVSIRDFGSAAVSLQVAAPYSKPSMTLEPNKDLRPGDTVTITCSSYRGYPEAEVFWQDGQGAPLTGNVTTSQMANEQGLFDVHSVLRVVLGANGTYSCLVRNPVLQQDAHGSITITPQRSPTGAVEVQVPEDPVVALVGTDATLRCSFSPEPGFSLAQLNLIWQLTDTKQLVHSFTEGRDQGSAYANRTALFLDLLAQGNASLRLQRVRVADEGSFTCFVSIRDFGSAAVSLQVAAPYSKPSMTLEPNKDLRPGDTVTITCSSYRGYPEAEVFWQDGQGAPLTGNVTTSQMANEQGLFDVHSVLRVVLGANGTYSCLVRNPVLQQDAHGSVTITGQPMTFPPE

T5: B7H3 peptide 10 (human)
T5 peptide: QRVRVADEGSFTCFVSIR

T6: B7H3 peptide 11 (human)
T6 peptide: SFTCFVSIRDFGSAAVSL

T7: B7H3 peptide 15 (human)
T7 peptide: LRPGDTVTITCSSYQGYP


What was measured:
[1] = molecular target: T1, recombinant human B7H3-Fc protein; assay: phage ELISA
Method in brief: (§1)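 Camel VHH phage were panned on recombinant B7H3-Fc protein for 3 rounds, using libraries from eight individual camels. Binding of the selected phage to immobilised antigens (human and other-species B7H3 or control proteins) was measured by phage ELISA and recorded as the ELISA signal.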

IgG control = assay: phage ELISA
Method in brief: as §1

[2] = molecular target: T1, recombinant human B7H3-Fc protein; assay: ELISA, purified VHH
Method in brief: (§2)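 The values are ELISA signals for binding of purified camel VHH nanobodies to immobilised recombinant B7H3 fusion proteins and to non-B7H3 comparison proteins. The nanobodies came from phage panning on recombinant B7H3-Fc.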

hB7H3-His = molecular target: T2, hB7H3-His; assay: ELISA, purified VHH
Method in brief: as §2

Non-relevant antigen = assay: ELISA, purified VHH
Method in brief: as §2

human B7H3 = molecular target: T3, human B7H3; assay: ELISA; row Human; well 3 of 3
Method in brief: as §2

HN3-Fc = assay: ELISA; row HN3-Fc; well 1 of 3
Method in brief: as §2

monkey B7H3-His [3] = molecular target: T4, monkey B7H3-His; assay: ELISA; row Monkey; well 1 of 3
Method in brief: as §2

monkey B7H3-His [4] = molecular target: T4, monkey B7H3-His; assay: ELISA; row Monkey; well 2 of 3
Method in brief: as §2

[5] = molecular target: T1, recombinant human B7H3-Fc protein; assay: ELISA; row B7H3-Fc; well 2 of 3
Method in brief: as §2

PD-L1 = assay: ELISA; row PDL1-Fc; well 1 of 3
Method in brief: as §2

B7H3 R&D = assay: ELISA; row B7H3 R&D; well 3 of 3
Method in brief: as §2

B7H3 peptide 10 = molecular target: T5, B7H3 peptide 10; assay: peptide ELISA (OD450), 18-mer peptides of human B7H3
Description: (§3) FIGS. 21A-21C: G8 cross-reacts with mouse B7H3 and kills mouse cancer cells. (FIG. 21A) Binding activity of anti-B7H3 nanobodies to mouse antigen detected by flow cytometry. […] (FIG. 21C). […] A total of 48 peptides from the human B7H3 protein were designed and synthesized. Each peptide consisted of 18 amino acids and overlapped with adjacent peptides by 9 amino acids. ELISA technology was used to test binding ability of antibody to each peptide. Number indicates the OD₄₅₀ value. […] The peptide sequences are shown below the table. C4 and B12 may have a conformational epitope that couldn't be predicted by a linearized peptide library.
(§4) A total of 48 peptides from the human B7H3 protein were designed and synthesized. Each peptide consisted of 18 amino acids and overlapped with adjacent peptides by 9 amino acids. ELISA technology was used to test binding ability of the antibodies to each peptide (FIG. 21C). […] C4 and B12 may have a conformational epitope that couldn't be predicted by a linearized peptide library.

B7H3 peptide 11 = molecular target: T6, B7H3 peptide 11; assay: as above
Description: as §3, §4

B7H3 peptide 15 = molecular target: T7, B7H3 peptide 15; assay: as above
Description: as §3, §4

PD-L1, sequence (Q9NZQ7 whole entry): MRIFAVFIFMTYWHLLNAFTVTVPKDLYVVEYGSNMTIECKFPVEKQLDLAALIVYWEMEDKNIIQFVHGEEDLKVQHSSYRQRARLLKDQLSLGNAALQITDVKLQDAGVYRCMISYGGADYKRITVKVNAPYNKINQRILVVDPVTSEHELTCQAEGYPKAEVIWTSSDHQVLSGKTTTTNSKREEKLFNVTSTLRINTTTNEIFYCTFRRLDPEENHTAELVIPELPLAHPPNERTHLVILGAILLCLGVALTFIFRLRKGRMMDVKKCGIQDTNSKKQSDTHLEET

ELISA signal [1] | ELISA signal (IgG control) | ELISA signal [2] | ELISA signal (hB7H3-His) | ELISA signal (Non-relevant antigen) | ELISA reading (name not given) (human B7H3) | ELISA reading (name not given) (HN3-Fc) | ELISA reading (name not given) (monkey B7H3-His [3]) | ELISA reading (name not given) (monkey B7H3-His [4]) | ELISA reading (name not given) [5] | ELISA reading (name not given) (PD-L1) | ELISA reading (name not given) (B7H3 R&D) | binding result (B7H3 peptide 10) | binding result (B7H3 peptide 11) | binding result (B7H3 peptide 15) | Binder
2.13 | 0.103 | 2.54 | 2.55 | 0.0541 | – | – | – | – | – | – | – | – | – | – | RWG4 (VHH, Camel VHH; tag not described; also called camel antibody RWG4) VHH: QVQLVQSGGGLVQPGGSLRLSCAASGFTFSVYWFYWVRQAPRQGLEWVSTIASNGSTYYSDSVKGRFTISRDNAKNTVYLQMNSLKPEDTAVYYCVSDPDYYSDYERAYKFWAQGTQVTVSS
2.52 | 0.101 | 0.641 | 1.04 | 0.0562 | 0.164 | 0.05 | 0.197 | 0.198 | 2.01 | 0.0653 | 0.0646 | binds | binds | binds | RWG8 (VHH, Camel VHH; tag not described; also called camel antibody RWG8) VHH: DVQLVESGGGLVQPGGSLRLSCAASGFTFSRYWMGWFRQAPGKGVEWVSTINSGGGSTYYADSVKGRFTISRDNAKNTLYLQLNNLKTEDTAMYYCAKEQWRTGSRGQGTQVTVSS

Second part, the binder before the results:

Binder | ELISA signal [1] | ELISA signal (IgG control) | ELISA signal [2] | ELISA signal (hB7H3-His) | ELISA signal (Non-relevant antigen) | ELISA reading (name not given) (human B7H3) | ELISA reading (name not given) (HN3-Fc) | ELISA reading (name not given) (monkey B7H3-His [3]) | ELISA reading (name not given) (monkey B7H3-His [4]) | ELISA reading (name not given) [5] | ELISA reading (name not given) (PD-L1) | ELISA reading (name not given) (B7H3 R&D) | binding result (B7H3 peptide 10) | binding result (B7H3 peptide 11) | binding result (B7H3 peptide 15)
RWB12 (VHH, Camel VHH; tag not described; also called camel antibody RWB12) VHH: QVQLVESGGGSVQVGGSLRLSCAASGFTYNSYSVGWFRQAPGKEREGVAAINSGGSSTYYAASVKGRFTISRDNAKNTVYLQMNSLKPEDTAMYYCAARSPSPLTFQTRTLREDSYNYWGQGTQVTVSS | 2.48 | 0.164 | 0.568 | 0.686 | 0.0495 | 0.199 | 0.0533 | 0.188 | 0.201 | 0.945 | 0.0639 | 0.0955 | no binding | no binding | no binding
RWC4 (VHH, Camel VHH; tag not described; also called camel antibody RWC4) VHH: EVQLVESGGGSVQAGGSLRLSCVASEDSTSAMCMGWFRQAPGKEREGVACINPTGEVTWYGDSVKGRFTISRDTVKKIVYLQMNSLKPEDTAMYYCAARVTYGGDWSTDTDYEYWGQGTQVTVSS | 2.66 | 0.0777 | 2.02 | 2.44 | 0.0719 | 0.938 | 0.0801 | 1 | 1 | 1.99 | 0.0625 | 0.156 | no binding | no binding | no binding
